Residue numbers refer to the chain shown, from its start. One block for each binder: values may come before it.
Columns and labels:
human plasma kallikrein [1] = molecular target: T1, human plasma kallikrein (human, UniProt P03952 20-390; P03952 391-638); assay: apparent inhibition constant (Ki,app) against human pKal, enzyme inhibition
T1 construct: also called pKal; human pKal
T1 sequence (P03952 20-390, chain 1 of 2): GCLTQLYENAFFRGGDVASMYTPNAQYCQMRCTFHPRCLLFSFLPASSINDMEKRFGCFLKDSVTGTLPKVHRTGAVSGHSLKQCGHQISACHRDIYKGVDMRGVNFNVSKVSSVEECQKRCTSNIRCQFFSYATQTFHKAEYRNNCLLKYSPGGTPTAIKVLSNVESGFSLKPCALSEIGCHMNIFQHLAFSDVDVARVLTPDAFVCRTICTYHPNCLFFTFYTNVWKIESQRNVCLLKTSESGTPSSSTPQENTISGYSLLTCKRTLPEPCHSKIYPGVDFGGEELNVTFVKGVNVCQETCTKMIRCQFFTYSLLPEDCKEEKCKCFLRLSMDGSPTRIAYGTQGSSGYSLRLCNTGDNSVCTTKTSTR
T1 sequence (P03952 391-638, chain 2 of 2): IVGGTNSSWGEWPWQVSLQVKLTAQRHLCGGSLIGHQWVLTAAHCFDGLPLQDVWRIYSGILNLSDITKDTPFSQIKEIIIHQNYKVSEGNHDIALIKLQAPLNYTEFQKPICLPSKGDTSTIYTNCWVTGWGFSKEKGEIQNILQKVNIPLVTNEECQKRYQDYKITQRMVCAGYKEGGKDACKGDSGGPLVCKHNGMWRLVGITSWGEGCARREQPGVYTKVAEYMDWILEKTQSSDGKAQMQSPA

human plasma kallikrein [2] = molecular target: T1, human plasma kallikrein; assay: ELISA, biotinylated plasma kallikrein coated on microtiter plate, signal divided by streptavidin background
Text: Abbreviations used: "T/B" is the ELISA signal obtained using of the "target" (biotinylated plasma kallikrein) divided by the ELISA signal of the "background" (streptavidin); both of which were coated on microtiter plates. "nd" is not determined. The symbol "q" refers to the amber suppressible stop codon (TAG), which is translated as glutamine (Q) in strains of *E. coli* such as the TG1 cells that were used to express the Fab fragments.

human plasma kallikrein [3] = molecular target: human plasma kallikrein (human, UniProt P03952 20-390; P03952 391-638); assay: cell-based or functional assay
Target sequence in this assay (P03952 20-390, chain 1 of 2): as the sequence (P03952 20-390, chain 1 of 2) above
Target sequence in this assay (P03952 391-638, chain 2 of 2): as the sequence (P03952 391-638, chain 2 of 2) above

B1: M29-E09 (Fab, V domains shown)
VH: EVQLLESGGGLVQPGGSLRLSCAASGFTFSWYEMGWVRQAPGKGLEWVSSIYSSGGGTMYADSVKGRFTISRDNSKNTLYLQMNSLRAEDTAVYYCARNPQYSGYDRSLSDGAFDIWGQGTMVTVSS
VL: QYELTQPPSVSVSPGQTATITCSGDNLGNKYNSWYQQKPGQSPLLVIYQDTKRPSAIPERFSGSNSGNTATLTISGTQAMDEADYYCQAWDGNVVFGGGTKLTVL
notes: Printed HC runs from VH into the start of CH1
Ki (human plasma kallikrein [1]): 11 nM
Human pKal ELISA (T/B) (human plasma kallikrein [2]): 28.8 ratio of ELISA signal on target to background (streptavidin)

B2: M35-G04 (Fab, V domains shown)
VH: EVQLLESGGGLVQPGGSLRLSCAASGFTFSYYHMSWVRQAPGKGLEWVSVISPSGGSTKYADSVKGRFTISRDNSKNTLYLQMNSLRAEDTAVYYCARGGSSDYAWGSYRRPYYFDYWGQGTLVTVSS
VL: DIQMTQSPATLSLSPGERATLSCRASQSVSSYLAWYQQKPGQAPRLLIYDASNRATGIPARFSGSGSGTDFTLTISSLEPEDFAVYYCQQRSNWPRGFTFGPGTKVDIK
notes: Printed HC runs from VH into the start of CH1; also called 559A-M35-G04; 559A-M0035-G04
Ki (human plasma kallikrein [1]): 2.9 nM
Human pKal ELISA (T/B) (human plasma kallikrein [2]): 11.1 ratio of ELISA signal on target to background (streptavidin)

B3: M6-D09 (Fab, V domains shown)
VH: EVQLLESGGGLVQPGGSLRLSCAASGFTFSFYYMVWVRQAPGKGLEWVSVIYPSGGITVYADSVKGRFTISRDNSKNTLYLQMNSLRAEDTAVYYCARDKWAVMPPYYYYAMDVWGQGTTVTVSS
VL: DIQMTQSPSSLSASVGDRVTITCRASQSIRNYLNWYQQKPGKAPNLLIYAASTLQSGVPARFSGSGSGTDFTLTISSLQPEDFATYYCQQLSGYPHTFGQGTKLEIK
notes: Printed HC runs from VH into the start of CH1; also called M06-D09; 559A-M06-D09
Ki (human plasma kallikrein [1]): 5.9 nM
Human pKal ELISA (T/B) (human plasma kallikrein [2]): 39.9 ratio of ELISA signal on target to background (streptavidin)

B4: M7-E07 (Fab, V domains shown)
VH: EVQLLESGGGLVQPGGSLRLSCAASGFTFSWYLMIWVRQAPGKGLEWVSYIYPSGGFTYYADSVKGRFTISRDNSKNTLYLQMNSLRAEDMAVYYCARTEGPLSWGYGMDVWGQGTTVTVSS
VL: not shown
notes: as for B1
Ki (human plasma kallikrein [1]): 36 nM
Human pKal ELISA (T/B) (human plasma kallikrein [2]): 45.7 ratio of ELISA signal on target to background (streptavidin)

B5: M27-E05 (Fab, V domains shown)
VH: B4 VH
VL: not shown
notes: as for B1
Ki (human plasma kallikrein [1]): 16 nM
Human pKal ELISA (T/B) (human plasma kallikrein [2]): 41.3 ratio of ELISA signal on target to background (streptavidin)

B6: M10-F10 (Fab, V domains shown)
VH: EVQLLESGGGLVQPGGSLRLSCAASGFTFSFYNMNWVRQAPGKGLEWVSSISPSGGETNYADSVKGRFTISRDNSKNTLYLQMNSLRAEDTAVYYCARGGGAYRNNWWGGFDIWGLGTMVTVSS
VL: DIQMTQSPSSLSASVGDRVTITCRASQSISVYLNWYQHKPGKAPKLLIYGASNLQFGVPSRFSGSGYGTDFTLTISSLQPEDFATYHCQQTFSLFTFGGGTKVEIK
notes: as for B1
Ki (human plasma kallikrein [1]): < 100 nM
Human pKal ELISA (T/B) (human plasma kallikrein [2]): 39.2 ratio of ELISA signal on target to background (streptavidin)

B17: M29-D09 (Fab, V domains shown)
VH: EVQLLESGGGLVQPGGSLRLSCAASGFTFSWYTMVWVRQAPGKGLEWVSYIYPSGGATFYADSVKGRFTISRDNSKNTLYLQMNSLRAEDTAVYYCAMGSYDYIWGFYSDHWGQGTLVTVSS
VL: QSALTQPPTVSVSPGQTARITCSGNKLGDKYVAWYQQKPGQSPMLVIYQDTKRPSRVSERFSGSNSANTATLSISGTQALDEADYYCQAWDSSIVIFGGGTRLTVL
notes: Printed HC runs from VH into the start of CH1; also called 559A-M29-D09; 559A-M0029-D09
Ki (human plasma kallikrein [1]): 0.7 nM
Human pKal ELISA (T/B) (human plasma kallikrein [2]): 47.5 ratio of ELISA signal on target to background (streptavidin)

B18: M7-B04 (Fab, V domains shown)
VH: EVQLLESGGGLVQPGGSLRLSCAASGFTFSWYSMVWVRQAPGKGLEWVSSISPSGGLTNYADSVKGRFTISRDNSKNTLYLQMNSLRAEDTAVYYCARHTAARPFYYYYMDVWGKGTTVTVSS
VL: QSALTQPASVSGSPGQSITISCTGTNSDVGNYNLVSWYQQHPGEAPKLLIYEVNKRPSGVSNRFSGSKSGNTASLTISGLQAEDEADYLCCSYAGNRNFYVFGAGTKVTVL
notes: as for B1
Ki (human plasma kallikrein [1]): 54 nM
Human pKal ELISA (T/B) (human plasma kallikrein [2]): 4.1 ratio of ELISA signal on target to background (streptavidin)

B19: M8-A09 (Fab, V domains shown)
VH: EVQLLESGGGLVQPGGSLRLSCAASGFTFSTYFMLWVRQAPGKGLEWVSSIYPSGGNTVYADSVKGRFTISRDNSKNTLYLQMNSLRAEDTAVYYCARAASPVRNYYYYGMDVWGQGTTVTVSS
VL: QCELTQPPSESVSPGQTANITCSGDKLGNKYAYWYQQKPGQSPVLVIYQDNNRPSGIPERFSGSNSGNTATLTISGTQAIDEANYYCQAWDSRTVVFGGGTKLTVL
notes: as for B1
Ki (human plasma kallikrein [1]): 105 nM
Human pKal ELISA (T/B) (human plasma kallikrein [2]): 5.4 ratio of ELISA signal on target to background (streptavidin)

B20: M38-F02 (Fab, V domains shown)
VH: EVQLLESGGGLVQPGGSLRLSCAASGFTFSYYMMVWVRQAPGKGLEWVSYIYSSGGHTVYADSVKGRFTISRDNSKNTLYLQMNSLRAEDTAVYYCARDLFLYDFWSKGAFDIWGQGTMVTVSS
VL: QSVLTQPPSVSVSPGQTASITCSGEKLGDKYVSWYQQKPGQSPSLVICEDSRRPSGIPERFSGSNSGNTATLTISGAQPMDEADYYCQAWDSSTAIFGPGTKVTVL
notes: as for B1
Ki (human plasma kallikrein [1]): 14 nM
Human pKal ELISA (T/B) (human plasma kallikrein [2]): 33.5 ratio of ELISA signal on target to background (streptavidin)

B21: X67-B03 (antibody, V domains shown)
VH: EVQLLESGGGLVQPGGSLRLSCAASGFTFSAYSMIWVRQAPGKGLEWVSYIRPSGGRTTYADSVKGRFTISRDNSKNTLYLQMNSLRAEDTAVYYCARGGLLLWSRELKSNYFDYWGQGTLVTVSS
VL: DIQMTQSPSSLSAFVGDRVTITCRASQPIDNYLNWYHQKPGKAPKLLIYAASRLQSGVPSRLSGSGFGTDFTLTISSLQPEDFGNYYCQQSYTVPYTFGGGTKVEIR
notes: Single point mutant (F to S at P2 of HC CDR3) of M142-H08; Only variable domains and the start of CH1 are printed; also called 559A-X67-B03
Ki (human plasma kallikrein [1]): 2.1 nM

B22: X67-C09 (antibody, V domains shown)
VH: B21 VH with S105G
VL: B21 VL
notes: Single point mutant (F to G at P2 of HC CDR3) of M142-H08; Only variable domains and the start of CH1 are printed; also called 559A-X67-C09
Ki (human plasma kallikrein [1]): 8.6 nM

B23: X67-D03 (antibody, V domains shown)
VH: B21 VH with S105N
VL: B21 VL
notes: Single point mutant (F to N at P2 of HC CDR3) of M142-H08; Only variable domains and the start of CH1 are printed; also called 559A-X67-D03
Ki (human plasma kallikrein [1]): 0.1 nM

B24: X67-C03 (antibody, V domains shown)
VH: B21 VH with S105M
VL: B21 VL
notes: Single point mutant (F to M at P2 of HC CDR3) of M142-H08; the printed HC is used; Only variable domains and the start of CH1 are printed; also called 559A-X67-C03
Ki (human plasma kallikrein [1]): 0.7 nM

Now from value to binder:

% inhibition at 10 nM (human plasma kallikrein [3]): 67.2%
B7: M207-A01 (Fab, V domains shown)
VH: EVQLLESGGGLVQPGGSLRLSCAASGFTFSHYLMTWVRQAPGKGLEWVSYISPSGGHTIYADSVKGRFTISRDNSKNTLYLQMNSLRAEDTAVYYCARVARGISARSRTSCFDYWGQGTLVTVSS
VL: DIQMTQSPGTLSLSPGERATLSCRTSQFVNSNYLAWYQQTPGQAPRLLIYGASSRATGIPDRFSGTGYGTDFTLTISRLEPEDYGTYYCQQSSRTPWTFGQGTRVEIK

% inhibition at 10 nM (human plasma kallikrein [3]): 58.6%
B8: M205-F03 (Fab, V domains shown)
VH: B7 VH with H31S, Y32Q, L33Q, T35V, H57N, I59Y, S104A, C111Y
VL: B7 VL

% inhibition at 10 nM (human plasma kallikrein [3]): 19%
B9: M206-H04 (Fab, V domains shown)
VH: B7 VH with H31S, L33M, T35V, Y50S, H57Y, Y60Q, S104A, C111Y
VL: B7 VL

% inhibition at 10 nM (human plasma kallikrein [3]): 65.5%
B10: M206-C03 (Fab, V domains shown)
VH: B7 VH with H31Q, L33M, T35V, Y50S, S52Y, P53S, H57N, I59P, S104A, C111Y
VL: B7 VL

% inhibition at 10 nM (human plasma kallikrein [3]): 43.7%
B11: M208-D12 (Fab, V domains shown)
VH: B7 VH with V99L, S104A, C111Y, F112Q, Y114I
VL: B7 VL

Ki (human plasma kallikrein [1]): 0.2 nM
B12: X81-B01 (antibody, V domains shown)
VH: B7 VH with S104A, C111Y
VL: B7 VL with D1E, Q3V, M4L, T40K, T66S, Y68S, Y84F, G85A, T86V, R104K
notes: No variable domains are printed under the name X81-B01; also called germlined, codon optimized IgG version of X63-G06

% inhibition at 10 nM (human plasma kallikrein [3]): 61.4%
B13: M207-C05 (Fab, V domains shown)
VH: B7 VH with A100G, S104A, C111Y, Y114K
VL: B7 VL

% inhibition at 10 nM (human plasma kallikrein [3]): 47%
B14: M209-B01 (Fab, V domains shown)
VH: B7 VH with S104V, C111N, Y114Q
VL: B7 VL

% inhibition at 10 nM (human plasma kallikrein [3]): 51.4%
B15: M203-A01 (Fab, V domains shown)
VH: B7 VH with H31N, T35A, Y50W, S52V, H57Y, I59E, S104A, C111Y
VL: B7 VL

% inhibition at 10 nM (human plasma kallikrein [3]): 58.8%
B16: M205-A12 (Fab, V domains shown)
VH: B7 VH with H31Q, L33D, T35I, P53S, H57F, I59R, S104A, C111Y
VL: B7 VL

Ki (human plasma kallikrein [1]): 1.3 nM
B25: X67-E04 (antibody, V domains shown)
VH: B21 VH with S105D
VL: B21 VL
notes: Single point mutant (F to D at P2 of HC CDR3) of M142-H08; Only variable domains and the start of CH1 are printed; also called 559A-X67-E04

Ki (human plasma kallikrein [1]): 3.6 nM
B26: X67-H04 (antibody, V domains shown)
VH: B21 VH with S105E
VL: B21 VL
notes: Single point mutant (F to E at P2 of HC CDR3) of M142-H08; Only variable domains and the start of CH1 are printed; also called 559A-X67-H04

Ki (human plasma kallikrein [1]): 0.9 nM
B27: X67-F01 (antibody, V domains shown)
VH: B21 VH with S105Q
VL: B21 VL
notes: Single point mutant (F to Q at P2 of HC CDR3) of M142-H08; Only variable domains and the start of CH1 are printed; also called 559A-X67-F01

Ki (human plasma kallikrein [1]): 1.3 nM
B28: X67-F10 (antibody, V domains shown)
VH: B21 VH with S105T
VL: B21 VL
notes: Single point mutant (F to T at P2 of HC CDR3) of M142-H08; Only variable domains and the start of CH1 are printed; also called 559A-X67-F10

Ki (human plasma kallikrein [1]): 0.35 nM
B29: X67-G04 (antibody, V domains shown)
VH: B21 VH with S105A
VL: B21 VL
notes: Single point mutant (F to A at P2 of HC CDR3) of M142-H08; Only variable domains and the start of CH1 are printed; also called 559A-X67-G04
